We go through one substance from PMC5535893.

Test [1] concerns the target mouse CD3εγ-chains (mouse (endogenous in C57BL/6 spleen T cells)) (UniProt P22646).
The target is the same in test [2]. The experiment in a line: flow cytometry on cells; fixed CD8+ T cells (1 x 10^6/mL) incubated with or without ArtinM (25 µg/mL) for 40 min at 4 °C, then with 145-2C11-PE or 17A2-FITC (10 µg/mL) for 40 min at 4 °C; percentage of cells labelled with anti-CD3 antibody. Background: In flow cytometry, cells or beads pass a laser one at a time.

Sequence of UniProt P22646 (P22646 22-189, chain 1 of 2): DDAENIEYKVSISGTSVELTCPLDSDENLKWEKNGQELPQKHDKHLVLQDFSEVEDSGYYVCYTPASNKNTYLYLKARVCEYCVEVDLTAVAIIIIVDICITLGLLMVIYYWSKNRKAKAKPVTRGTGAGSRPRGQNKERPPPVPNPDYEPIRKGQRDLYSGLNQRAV
Sequence of UniProt P22646 (P11942 23-182, chain 2 of 2, further chain): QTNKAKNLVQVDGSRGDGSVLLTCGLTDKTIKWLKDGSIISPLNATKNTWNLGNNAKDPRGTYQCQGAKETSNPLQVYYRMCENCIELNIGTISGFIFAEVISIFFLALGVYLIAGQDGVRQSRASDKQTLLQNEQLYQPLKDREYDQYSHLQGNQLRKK

Take “ArtinM, D-mannose-binding lectin from Artocarpus heterophyllus (natural protein)”: the inhibition of the ArtinM-induced (1.25 µg/mL, 48 h) IL-2 release by CD8+ T cells after treatment with the anti-CD3εγ-chains antibody 17A2 (8 µg/mL), against an IgG isotype control; ELISA in test [1] came out at 70%. In test [2], this substance gave a fold decrease in the frequency of CD8+ T cells labelled by the anti-CD3εγ antibody 17A2 after pre-incubation with ArtinM of 3.5 fold.
